Reference: the supplement of paper PMC9732359
± gives the uncertainty stated by the source.

Experiment: protein stability index of a GFP-peptide fusion (yeast GPS) (PSI 1-4); higher = more stable; sorted into four equal gates, so the index is relative within each strain
Outline: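 Mid-log yeast cultures in leucine-free medium, carrying a pooled plasmid library, were sorted into four equal gates by their GFP/Cherry fluorescence ratio. Each plasmid expressed Cherry along with GFP fused upstream of a tiled 17-residue yeast protein peptide. Plasmids recovered from each gate were PCR-amplified and Illumina-sequenced, with reads assigned to strains by barcodes. The protein stability index was obtained by summing each gate's read frequency weighted by its gate number.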

EGGEAEFIFGTYNMIDA [ARP7]
protein stability index (doa10∆): 2.79 ± 0.059
protein stability index (pdr5∆): 2.66 ± 0.055
protein stability index (san1∆): 2.52 ± 0.054
protein stability index (ubr1∆): 2.83 ± 0.045

GSEILGDLKLQVLLDEE [RPO21]
protein stability index (doa10∆): 3.25 ± 0.12
protein stability index (pdr5∆): 3.35 ± 0.13
protein stability index (san1∆): 3.04 ± 0.14
protein stability index (ubr1∆): 3.28 ± 0.1

GGLKSCDLDFPLRENTN [YDL116W/NUP84]
protein stability index (doa10∆): 2.59 ± 0.058
protein stability index (pdr5∆): 2.29 ± 0.059
protein stability index (san1∆): 2.25 ± 0.077
protein stability index (ubr1∆): 2.2 ± 0.057

PVFHKKAKTTKKVVLRL [RPL42A]
protein stability index (doa10∆): 2.95 ± 0.11
protein stability index (pdr5∆): 1.92 ± 0.091
protein stability index (san1∆): 2.25 ± 0.094
protein stability index (ubr1∆): 1.98 ± 0.14

TLGNQMLSAHNIIESIA [YJR042W/NUP85]
protein stability index (doa10∆): 2.33 ± 0.097
protein stability index (pdr5∆): 2.58 ± 0.073
protein stability index (san1∆): 2.53 ± 0.14
protein stability index (ubr1∆): 2.79 ± 0.072

VVYHPSNNELVRTNTLT [RPS8A]
protein stability index (doa10∆): 2.647 ± 0.019
protein stability index (pdr5∆): 2.396 ± 0.018
protein stability index (san1∆): 2.455 ± 0.019
protein stability index (ubr1∆): 2.647 ± 0.014

SLPFLLRHMPLASIPDI [SSN2]
protein stability index (doa10∆): 1.94 ± 0.072
protein stability index (pdr5∆): 1.69 ± 0.055
protein stability index (san1∆): 1.5 ± 0.072
protein stability index (ubr1∆): 1.44 ± 0.045

LFQNVPEQGEEPMKQLN [YAR002W/NUP60]
protein stability index (doa10∆): 3.62 ± 0.15
protein stability index (pdr5∆): 3.32 ± 0.16
protein stability index (san1∆): 3.51 ± 0.12
protein stability index (ubr1∆): 3.17 ± 0.12

DFREKALYIAMMTRRVV [RET1]
protein stability index (doa10∆): 1.18 ± 0.077
protein stability index (pdr5∆): 1.58 ± 0.12
protein stability index (ubr1∆): 1.37 ± 0.074

IHTQLSEIKQQINKAQI [YJL039C/NUP192]
protein stability index (doa10∆): 2.73 ± 0.12
protein stability index (pdr5∆): 2.8 ± 0.18
protein stability index (san1∆): 2.81 ± 0.13
protein stability index (ubr1∆): 3.12 ± 0.2

ILTSLMRSKLEKLTLVT [CSN9]
protein stability index (doa10∆): 2.42 ± 0.081
protein stability index (pdr5∆): 3.03 ± 0.064
protein stability index (san1∆): 2.87 ± 0.06
protein stability index (ubr1∆): 2.67 ± 0.059

IQEFLVVIEKRRKKILN [GRR1]
protein stability index (doa10∆): 2.92 ± 0.091
protein stability index (pdr5∆): 2.74 ± 0.097
protein stability index (san1∆): 2.88 ± 0.083
protein stability index (ubr1∆): 2.94 ± 0.088

CAECSSKLSLSRTDAVR [RPC10]
protein stability index (doa10∆): 2.12 ± 0.049
protein stability index (pdr5∆): 2.16 ± 0.047
protein stability index (san1∆): 2.51 ± 0.061
protein stability index (ubr1∆): 2.35 ± 0.05

NTILNSSSDFRLHYYPK [BRR2]
protein stability index (doa10∆): 2.75 ± 0.054
protein stability index (pdr5∆): 3.17 ± 0.067
protein stability index (san1∆): 2.81 ± 0.048
protein stability index (ubr1∆): 3.11 ± 0.042

PNIVEIDLDNDEDDDED [DLS1]
protein stability index (doa10∆): 3.17 ± 0.084
protein stability index (pdr5∆): 3.29 ± 0.065
protein stability index (san1∆): 2.89 ± 0.1
protein stability index (ubr1∆): 3.04 ± 0.15

DVVTREYTINLHKRLHG [RPL31A]
protein stability index (doa10∆): 2.62 ± 0.12
protein stability index (pdr5∆): 2.55 ± 0.09
protein stability index (san1∆): 2.66 ± 0.069
protein stability index (ubr1∆): 1.71 ± 0.067

DDIINNDEPSHKKIKVA [SIR2]
protein stability index (doa10∆): 2.77 ± 0.052
protein stability index (pdr5∆): 2.84 ± 0.037
protein stability index (san1∆): 2.64 ± 0.041
protein stability index (ubr1∆): 2.87 ± 0.042

KPALGSLGSSSTTASGT [YGR119C/NUP57]
protein stability index (doa10∆): 3.22 ± 0.085
protein stability index (pdr5∆): 3.3 ± 0.084
protein stability index (san1∆): 3.05 ± 0.062
protein stability index (ubr1∆): 3.06 ± 0.1

VRQKIKTLKRMIKESST [POP1]
protein stability index (doa10∆): 1.47 ± 0.039
protein stability index (pdr5∆): 1.68 ± 0.052
protein stability index (san1∆): 1.45 ± 0.081
protein stability index (ubr1∆): 1.93 ± 0.044

SRVINVVRAASSLASQD [RRP6]
protein stability index (doa10∆): 1.98 ± 0.082
protein stability index (pdr5∆): 2.47 ± 0.074
protein stability index (san1∆): 2.57 ± 0.18

PNTSDNNNNSNNHNMRN [SWI1]
protein stability index (doa10∆): 3.12 ± 0.053
protein stability index (pdr5∆): 3.02 ± 0.059
protein stability index (san1∆): 2.93 ± 0.046
protein stability index (ubr1∆): 3.15 ± 0.038

CVVSTDSTNLSDDAAQF [ECM29]
protein stability index (doa10∆): 2.19 ± 0.086
protein stability index (pdr5∆): 2.6 ± 0.075
protein stability index (san1∆): 1.69 ± 0.08
protein stability index (ubr1∆): 3.04 ± 0.078

TNFSPTPANNGENAAEK [SNF2]
protein stability index (doa10∆): 2.42 ± 0.067
protein stability index (pdr5∆): 2.77 ± 0.072
protein stability index (san1∆): 2.21 ± 0.074
protein stability index (ubr1∆): 2.81 ± 0.05

TPEYAAEKVKVRDELRK [UBP6]
protein stability index (doa10∆): 1.28 ± 0.068
protein stability index (pdr5∆): 1.61 ± 0.083
protein stability index (san1∆): 1.42 ± 0.14
protein stability index (ubr1∆): 1.46 ± 0.07

VRCVNCSKSIPKDKAIK [RPS26A]
protein stability index (doa10∆): 2.77 ± 0.067
protein stability index (pdr5∆): 3 ± 0.071
protein stability index (san1∆): 2.77 ± 0.063
protein stability index (ubr1∆): 2.82 ± 0.044

SEEVDDLSMVPKMKDEE [SNF2]
protein stability index (doa10∆): 2.78 ± 0.17
protein stability index (san1∆): 3.29 ± 0.12
protein stability index (ubr1∆): 3.59 ± 0.22

EKYEDEDEEKILDNTEN [DSN1]
protein stability index (doa10∆): 3.52 ± 0.15
protein stability index (pdr5∆): 3.16 ± 0.1
protein stability index (san1∆): 3.01 ± 0.26
protein stability index (ubr1∆): 3.21 ± 0.091

SKALLREISNFSKGDAD [SRP72]
protein stability index (doa10∆): 3.06 ± 0.26
protein stability index (pdr5∆): 3.41 ± 0.21
protein stability index (ubr1∆): 3.77 ± 0.2

MVLEATVLVIDNSEYSR [RPN10]
protein stability index (doa10∆): 1.79 ± 0.097
protein stability index (pdr5∆): 1.72 ± 0.12
protein stability index (san1∆): 1.85 ± 0.12
protein stability index (ubr1∆): 2.2 ± 0.046

IELNFDAVKDFKLGKFN [QCR2]
protein stability index (doa10∆): 3.31 ± 0.26
protein stability index (pdr5∆): 2.69 ± 0.17
protein stability index (san1∆): 3.31 ± 0.093
protein stability index (ubr1∆): 3.71 ± 0.25

EQEDIIEKTESVDKKVD [SWI3]
protein stability index (doa10∆): 3.04 ± 0.07
protein stability index (pdr5∆): 3.02 ± 0.081
protein stability index (san1∆): 3.14 ± 0.041
protein stability index (ubr1∆): 2.99 ± 0.094

KTLCARAVANRTDATFI [RPT1]
protein stability index (doa10∆): 1.39 ± 0.12
protein stability index (pdr5∆): 1.37 ± 0.12
protein stability index (san1∆): 1.26 ± 0.15
protein stability index (ubr1∆): 1.37 ± 0.18

VISLGPNLATFISSGTS [YJL039C/NUP192]
protein stability index (doa10∆): 2.33 ± 0.061
protein stability index (pdr5∆): 2.64 ± 0.065
protein stability index (san1∆): 2.36 ± 0.073
protein stability index (ubr1∆): 2.3 ± 0.046

TLASLIRYNSVEIQEVP [RPC82]
protein stability index (doa10∆): 2.62 ± 0.073
protein stability index (pdr5∆): 2.59 ± 0.051
protein stability index (san1∆): 2.48 ± 0.12
protein stability index (ubr1∆): 2.54 ± 0.077

KNFIESESVGAFLSFLA [YJL039C/NUP192]
protein stability index (doa10∆): 2.1 ± 0.066
protein stability index (pdr5∆): 2.25 ± 0.068
protein stability index (san1∆): 2.47 ± 0.066
protein stability index (ubr1∆): 2.85 ± 0.045

YFYDLDVLKDGENNINF [BRN1]
protein stability index (doa10∆): 3.57 ± 0.22
protein stability index (pdr5∆): 3.4 ± 0.15
protein stability index (san1∆): 3.54 ± 0.079
protein stability index (ubr1∆): 3.29 ± 0.11

QIDHFKSMLSKPETLSI [SWI3]
protein stability index (doa10∆): 2.61 ± 0.086
protein stability index (pdr5∆): 2.44 ± 0.074
protein stability index (san1∆): 2.73 ± 0.065
protein stability index (ubr1∆): 2.4 ± 0.048

EIKDAETSCDNYHPMNI [SMC4]
protein stability index (doa10∆): 2.64 ± 0.057
protein stability index (pdr5∆): 2.83 ± 0.055
protein stability index (san1∆): 3.15 ± 0.043
protein stability index (ubr1∆): 2.98 ± 0.044

KLVEIIWNDVVYGEGTS [YJL039C/NUP192]
protein stability index (doa10∆): 3.46 ± 0.11
protein stability index (pdr5∆): 3.26 ± 0.11
protein stability index (san1∆): 3.39 ± 0.098
protein stability index (ubr1∆): 3.35 ± 0.058

SIIGNKNNNYTWEECVF [REC8]
protein stability index (doa10∆): 2.78 ± 0.15
protein stability index (pdr5∆): 2.62 ± 0.23
protein stability index (san1∆): 2.73 ± 0.085
protein stability index (ubr1∆): 2.43 ± 0.11

PIRINSTEEIEYIELEY [YMR129W/POM152]
protein stability index (doa10∆): 2.45 ± 0.095
protein stability index (pdr5∆): 3.04 ± 0.09
protein stability index (san1∆): 2.68 ± 0.091
protein stability index (ubr1∆): 2.82 ± 0.039

SPVQIAFNRFMAESLVD [SSN8]
protein stability index (doa10∆): 1.52 ± 0.043
protein stability index (pdr5∆): 1.97 ± 0.045
protein stability index (san1∆): 1.63 ± 0.11
protein stability index (ubr1∆): 1.52 ± 0.044

TQARVITGNKIMRILKS [RPS13]
protein stability index (doa10∆): 1.41 ± 0.17
protein stability index (pdr5∆): 1.24 ± 0.081
protein stability index (san1∆): 1.18 ± 0.12
protein stability index (ubr1∆): 1.1 ± 0.079

TLVSTDNYFNLQLNEAE [SMX3]
protein stability index (doa10∆): 2.94 ± 0.069
protein stability index (pdr5∆): 2.91 ± 0.059
protein stability index (san1∆): 2.82 ± 0.053
protein stability index (ubr1∆): 2.79 ± 0.048

RSISEPSINLDPDNTSF [ESC2]
protein stability index (doa10∆): 2.9 ± 0.074
protein stability index (pdr5∆): 3 ± 0.057
protein stability index (san1∆): 3.07 ± 0.058
protein stability index (ubr1∆): 3.165 ± 0.031

GMKVKADRDESSPYAAM [RPS14B]
protein stability index (doa10∆): 1.32 ± 0.067
protein stability index (pdr5∆): 1.09 ± 0.12
protein stability index (san1∆): 1.14 ± 0.22
protein stability index (ubr1∆): 1.2 ± 0.089

EAKDAIIELENINAKME [YIL149C/MLP2]
protein stability index (doa10∆): 3.06 ± 0.091
protein stability index (pdr5∆): 3.12 ± 0.099
protein stability index (san1∆): 3.02 ± 0.08
protein stability index (ubr1∆): 2.84 ± 0.088

FDKVEVQVRSVMDPITS [DIS3]
protein stability index (doa10∆): 2.78 ± 0.07
protein stability index (pdr5∆): 2.8 ± 0.066
protein stability index (san1∆): 3.21 ± 0.053
protein stability index (ubr1∆): 3.04 ± 0.064

SETPLQKTVNLKNIMKV [RPN4]
protein stability index (doa10∆): 2.25 ± 0.08
protein stability index (pdr5∆): 2.6 ± 0.085
protein stability index (san1∆): 2.56 ± 0.11
protein stability index (ubr1∆): 2.48 ± 0.043

CGFWQPAWRVWLNFLRG [PRP8]
protein stability index (doa10∆): 2.52 ± 0.072
protein stability index (pdr5∆): 2.87 ± 0.12
protein stability index (san1∆): 1.62 ± 0.13
protein stability index (ubr1∆): 2.35 ± 0.062

NSINNNNIKNGTNNISQ [YDL088C/ASM4]
protein stability index (doa10∆): 2.79 ± 0.044
protein stability index (pdr5∆): 2.75 ± 0.046
protein stability index (san1∆): 2.74 ± 0.046
protein stability index (ubr1∆): 2.98 ± 0.035

AKLWFYIYLSHETLARS [RPN3]
protein stability index (doa10∆): 1.69 ± 0.088
protein stability index (pdr5∆): 1.4 ± 0.086
protein stability index (san1∆): 1.68 ± 0.15
protein stability index (ubr1∆): 1.65 ± 0.084
